Measurements from paper PMC4094107 (Nature structural & molecular biology, 2010).
Like-named read-outs stand apart in the source and are kept apart here. Values belong to the binder of their own block, whether it stands above or below them.

B2: GST-PALB2 truncation 1 (P2T1, amino acids 1-200) (domain or fragment, human, UniProt Q86YC2 1-200, looked up)
chain: MDEPPGKPLSCEEKEKLKEKLAFLKREYSKTLARLQRAQRAEKIKHSIKKTVEEQDCLSQQDLSPQLKHSEPKNKICVYDKLHIKTHLDEETGEKTSITLDVGPESFNPGDGPGGLPIQRTDDTQEHFPHRVSDPSGEQKQKLPSRRKKQQKRTFISQERDCVFGTDSLRLSGKRLKEQEEISSKNPARSPVTEIRTHLL
B4: GST-PALB2 truncation 5 (P2T5, amino acids 853-1186) (domain or fragment, human, UniProt Q86YC2 853-1186, looked up)
chain: GNLQLVSELKNPSGSCSVDVSAMFWERAGCKEPCIITACEDVVSLWKALDAWQWEKLYTWHFAEVPVLQIVPVPDVYNLVCVALGNLEIREIRALFCSSDDESEKQVLLKSGNIKAVLGLTKRRLVSSSGTLSDQQVEVMTFAEDGGGKENQFLMPPEETILTFAEVQGMQEALLGTTIMNNIVIWNLKTGQLLKKMHIDDSYQASVCHKAYSEMGLLFIVLSHPCAKESESLRSPVFQLIVINPKTTLSVGVMLYCLPPGQAGRFLEGDVKDHCAAAILTSGTIAIWDLLLGQCTALLPPVSDQHWSFVKWSGTDSHLLAGQKDGNIFVYHYS

What was measured:
[1] = target: T1, PALB2 (purified from baculovirus-infected Sf9 cells as GST-PALB2-His) (human, UniProt Q86YC2 1-1186); assay: co-IP
T1 sequence (looked up): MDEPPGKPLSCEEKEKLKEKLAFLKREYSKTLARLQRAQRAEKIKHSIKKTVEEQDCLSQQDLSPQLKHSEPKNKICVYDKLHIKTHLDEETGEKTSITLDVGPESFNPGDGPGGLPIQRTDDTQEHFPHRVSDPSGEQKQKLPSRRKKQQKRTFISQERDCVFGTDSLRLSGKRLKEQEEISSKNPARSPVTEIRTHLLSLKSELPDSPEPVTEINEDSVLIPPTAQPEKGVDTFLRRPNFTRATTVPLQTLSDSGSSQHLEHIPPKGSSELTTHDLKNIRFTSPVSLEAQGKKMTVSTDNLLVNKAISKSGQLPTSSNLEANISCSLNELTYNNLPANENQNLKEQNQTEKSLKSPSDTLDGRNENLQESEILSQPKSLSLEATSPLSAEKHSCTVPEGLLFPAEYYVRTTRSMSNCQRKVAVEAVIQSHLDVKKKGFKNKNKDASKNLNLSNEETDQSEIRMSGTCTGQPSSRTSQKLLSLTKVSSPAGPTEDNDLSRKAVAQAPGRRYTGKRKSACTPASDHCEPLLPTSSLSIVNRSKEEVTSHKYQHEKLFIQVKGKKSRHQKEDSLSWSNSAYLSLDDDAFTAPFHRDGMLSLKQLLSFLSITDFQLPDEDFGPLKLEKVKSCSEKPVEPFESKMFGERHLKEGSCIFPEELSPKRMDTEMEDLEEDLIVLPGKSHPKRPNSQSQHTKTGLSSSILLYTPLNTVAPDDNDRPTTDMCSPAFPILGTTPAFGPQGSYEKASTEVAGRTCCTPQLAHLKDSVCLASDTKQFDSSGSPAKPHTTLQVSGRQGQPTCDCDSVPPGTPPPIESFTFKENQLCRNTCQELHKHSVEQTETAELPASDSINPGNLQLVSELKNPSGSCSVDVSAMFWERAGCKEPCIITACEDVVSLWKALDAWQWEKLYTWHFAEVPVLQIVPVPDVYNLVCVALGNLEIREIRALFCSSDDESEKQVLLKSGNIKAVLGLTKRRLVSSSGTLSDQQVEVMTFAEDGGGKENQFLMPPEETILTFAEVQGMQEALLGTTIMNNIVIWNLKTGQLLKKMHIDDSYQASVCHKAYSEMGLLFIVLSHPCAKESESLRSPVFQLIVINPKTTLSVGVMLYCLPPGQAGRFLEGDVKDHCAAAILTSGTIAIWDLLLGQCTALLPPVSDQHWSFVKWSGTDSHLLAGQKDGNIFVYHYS

[2] = target: T2, Human RAD51 (purified) (human, UniProt Q06609 1-339); assay: pull-down
T2 sequence (looked up): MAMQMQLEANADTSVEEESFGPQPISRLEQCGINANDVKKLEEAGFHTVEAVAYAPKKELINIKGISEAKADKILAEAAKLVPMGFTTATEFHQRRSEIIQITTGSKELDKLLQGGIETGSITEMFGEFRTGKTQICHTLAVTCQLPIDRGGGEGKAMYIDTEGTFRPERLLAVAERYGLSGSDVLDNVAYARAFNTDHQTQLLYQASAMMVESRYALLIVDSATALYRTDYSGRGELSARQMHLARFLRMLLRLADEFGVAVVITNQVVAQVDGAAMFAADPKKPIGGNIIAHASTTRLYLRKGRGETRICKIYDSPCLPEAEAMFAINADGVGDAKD

[3] = target: B4; assay: co-IP
[4] = target: B2; assay: co-IP
[5] = target: T1, PALB2 (purified from …); assay: co-IP; remark: listed apart in the source

Binder: B2
binding result [2]: binds

Binder: B4
binding result [2]: binds

More lines, now with the values ahead:

binding result [1]: binds
B1: BRC3/4-GST polypeptide (BRC3 and BRC4 region of BRCA2, amino acids 1409-1596) (domain or fragment, human, UniProt P51587 1409-1596, looked up)
chain: LTATKTEQNIKDFETSDTFFQTASGKNISVAKESFNKIVNFFDQKPEELHNFSLNSELHSDIRKNKMDILSYEETDIVKHKILKESVPVGTGNQLVTFQGQPERDEKIKEPTLLGFHTASGKKVKIAKESLDKVKNLFDEKEQGTSEITSFSHQWAKTLKYREACKDLELACETIEITAAPKCKEMQN

binding result [3]: binds
binding result [4]: binds
binding result [5]: binds
B3: GST-RAD51 truncation 3 (R51T3, amino acids 184-257) (domain or fragment, human, UniProt Q06609 184-257, looked up)
chain: DVLDNVAYARAFNTDHQTQLLYQASAMMVESRYALLIVDSATALYRTDYSGRGELSARQMHLARFLRMLLRLAD
